The assay concerns the target T1, BCMA on cells (293T cells transfected with BCMA; H929, MM.1S and U266 cell lines expressing BCMA) (human, UniProt Q02223 1-184).
T1 construct: H929, MM.1S and U266 carry the native protein; also called B-cell Maturation Antigen; TNFRSF17
T1 sequence: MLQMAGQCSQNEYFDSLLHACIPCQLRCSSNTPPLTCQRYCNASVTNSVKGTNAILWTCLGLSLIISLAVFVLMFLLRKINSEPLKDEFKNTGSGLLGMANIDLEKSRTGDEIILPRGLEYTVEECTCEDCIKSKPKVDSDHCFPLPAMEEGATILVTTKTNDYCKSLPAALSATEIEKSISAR
Briefly: flow cytometry, 293T cells transfected with BCMA.

B1: SCT-Aa02 (antibody, V domains shown)
VH: EVKLLQSGGGLVQPGGSLKLSCAASGIDFSRYWMSWVRRAPGKGLEWIGEINPDSSTINSAPSLEDKFIISRDNAKNTLYLQMSKVRSEDTALYYCASLYYDYERDYAMDYWGQGASVTVSS
VL: DIVMTQSQKFMSTSVGDRVSVTCKASQNVGTNVAWYQQKPGQSPKALIYSASYRFSGVPDRFTGSGSGTDFTLTISNVQSEDLAEYFCQQYHSYPFTFGGGTKLEIK
Consider B1, for which the binding result is recorded as “binds”.
